Measurements reported in US20140057830A1 (COMPLIX, published 2014).

B1: SEQ ID NO 77 (designed binder)
chain: GSIEQIQKGIAAIQEWIATIQKRIYAMTGGSGGSGGGSIEQIQKQIAAIQKQIAAIQKQIYAMTGSGGGGSGGSIEQIQKQIRAITIQIIAIIQQIWAMTP
notes: Alphabody, AC12 library clone
B2: SEQ ID NO 104 (designed binder)
chain: GSIEQIQKNIAYIQERIATIQKKIYRMTGGSGGSGGGGSGGSGGGSIEQIQKQIAAIQKQIAAIQKQIYAMTGSGGGGSGGSGGGGSGGSIEQIQKQIGAIAEQILAIVKQIRAMTP
notes: Alphabody, AC11b library clone
B3: SEQ ID NO 105 (designed binder)
chain: GSIEQIQKRIARIQEKIAWIQKPIYQMTGGSGGSGGGGSGGSGGGSIEQIQKQIAAIQKQIAAIQKQIYAMTGSGGGGSGGSGGGGSGGSIEQIQKQIRAIREQIGAILKQIKAMTP
notes: as for B2
B4: SEQ ID NO 114 (designed binder)
chain: GSIEQIQKRIARIQEPIAGIQKRIYMMTGGSGGSGGGGSGGSGGGSIEQIQKQIAAIQKQIAAIQKQIYAMTGSGGGGSGGSGGGGSGGSIEQIQKQIRAIAEQIVAIAKQIVAMTP
notes: as for B2
B5: SEQ ID NO 122 (designed binder)
chain: GSIEQIQKRIAPIQESIAGIQKRIYRMTGGSGGSGGGGSGGSGGGSIEQIQKQIAAIQKQIAAIQKQIYAMTGSGGGGSGGSGGGGSGGSIEQIQKQIRAITEQIGAILKQIFAMTP
notes: as for B2
B6: SEQ ID NO 107 (designed binder)
chain: GSIEQIQKPIARIQETIAIIQKTIYRMTGGSGGSGGGGSGGSGGGSIEQIQKQIAAIQKQIAAIQKQIYAMTGSGGGGSGGSGGGGSGGSIEQIQKQITAIREQIRAIWKQIPAMTP
notes: as for B2
B7: SEQ ID NO 96 (designed binder)
chain: GSIEQIQKWIACIQECIAGIQKEIYIMTGGSGGSGGGGSGGSGGGSIEQIQKQIAAIQKQIAAIQKQIYAMTGSGGGGSGGSGGGGSGGSIEQIQKQIRAISEQIYAIIKQISAMTP
notes: as for B2
B8: SEQ ID NO 102 (designed binder)
chain: GSIEQIQKIIASIQEPIARIQKGIYRMTGGSGGSGGGGSGGSGGGSIEQIQKQIAAIQKQIAAIQKQIYAMTGSGGGGSGGSGGGGSGGSIEQIQKQIGAIAEQILAIFKQIRAMTP
notes: as for B2
B9: SEQ ID NO 103 (designed binder)
chain: GSIEQIQKPIASIQELIAMIQKAIYWMTGGSGGSGGGGSGGSGGGSIEQIQKQIAAIQKQIAAIQKQIYAMTGSGGGGSGGSGGGGSGGSIEQIQKQIVAISEQIMAIIKQIGAMTP
notes: as for B2
B10: SEQ ID NO 99 (designed binder)
chain: GSIEQIQKPIAEIQEIIARIQKKIYIMTGGSGGSGGGGSGGSGGGSIEQIQKQIAAIQKQIAAIQKQIYAMTGSGGGGSGGSGGGGSGGSIEQIQKQISAIGEQIFAIVKQIYAMTP
notes: as for B2
B11: SEQ ID NO 95 (designed binder)
chain: GSIEQIQKPIALIQERIATIQKLIYGMTGGSGGSGGGGSGGSGGGSIEQIQKQIAAIQKQIAAIQKQIYAMTGSGGGGSGGSGGGGSGGSIEQIQKQISAIAEQILAISKQIWAMTP
notes: as for B2
B12: hFlt3L_cl4 (designed binder)
chain: HMSIEEIQKQIAAIQKQIAAIQKQIYAMTGGSGGGSGGGSGGGSGMSIEEIQKQIAAIQKQIAAIQKQIYAMTGGSGGGSGGGSGGGSGMSIEEIQDQILNIQWQIHDIQQQIIVMTPGG

Columns and labels:
[1] = molecular target: T1, human IL-23 (human, UniProt Q9NPF7 20-189; P29460 23-328); test: phage ELISA; IL-23 captured by anti-p40 antibody
T1 construct: Heterodimer p19/p40; in the ELISA captured on the plate through a biotinylated anti-p40 antibody (clone C8.6); also called cytokine IL-23 (eBioscience, 34-8239-85)
T1 sequence (looked up) 1: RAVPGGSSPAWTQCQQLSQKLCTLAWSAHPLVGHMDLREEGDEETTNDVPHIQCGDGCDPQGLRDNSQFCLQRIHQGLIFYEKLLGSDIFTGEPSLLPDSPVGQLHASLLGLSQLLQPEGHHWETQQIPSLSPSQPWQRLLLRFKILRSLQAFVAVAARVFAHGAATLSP
T1 sequence (looked up) 2: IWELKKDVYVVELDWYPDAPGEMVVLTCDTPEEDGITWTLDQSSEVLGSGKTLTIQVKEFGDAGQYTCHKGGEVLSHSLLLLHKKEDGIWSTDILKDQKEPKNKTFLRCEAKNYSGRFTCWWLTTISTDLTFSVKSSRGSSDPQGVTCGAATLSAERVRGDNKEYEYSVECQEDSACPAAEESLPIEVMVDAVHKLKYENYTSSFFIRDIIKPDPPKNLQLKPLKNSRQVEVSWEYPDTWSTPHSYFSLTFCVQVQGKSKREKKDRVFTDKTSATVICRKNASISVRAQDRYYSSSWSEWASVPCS
Procedure: The set-up of the ELISA was as follows. Neutravidin was immobilized on the plate at a concentration of 0.010 mg/ml in PBS (0.100 ml) for 1 hour at room temperature (RT). Plates were washed 5 times with PBS containing 0.05% Tween 20 (PBST) for 5 min. Subsequently, 0.1 ml Biotinylated anti-p40 antibody (100 nM) was added to the plates in PBS containing 0.1% BSA and incubated overnight at 4° C. or at RT for 1 hour. After incubation, plates were washed 5 times with PBST and blocked with PBS containing 0.1% BSA and 0.5% gelatin (0.120 ml/well) for at least 1 hour at room temperature or overnight at 4° C. After washing 5 times with PBST, 100 nM IL-23 (target) was added to 0.1 ml PBS, 0.1% BSA. For individual negative controls no IL-23 was added (background).
In the meantime, the bacteria plates were centrifuged at 1700 rpm for 10 min to pellet the bacteria. Plates with the immobilized IL-23 were washed 5 times with PBST and 0.050 ml of PBS with 0.2% BSA were added to the plate together with 0.050 ml of the bacterial culture supernatant containing phage. Plates were incubated for 1 to 1.5 hours at room temperature while shaking. Shaking of the plates enhanced the ELISA signals.

[2] = molecular target: T2, human Flt3L (human, UniProt P49771 27-160, limits assumed); test: isothermal titration calorimetry, 37 C, triplicate
T2 construct: Biotinylated form used in biopanning and phage ELISA; unlabelled in ITC and crystallography; also called hFlt3L; Flt3 ligand
T2 sequence (looked up): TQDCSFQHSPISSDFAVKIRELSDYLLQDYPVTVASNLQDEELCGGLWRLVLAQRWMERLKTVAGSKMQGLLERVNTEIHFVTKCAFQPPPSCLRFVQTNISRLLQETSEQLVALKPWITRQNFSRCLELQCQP
Procedure: (§1) The binding of Alphabody hFlt3L_cl4 to the target hFlt3L was tested by isothermal titration calorimetry (ITC) in order to determine its dissociation constant (KD), thermodynamic parameters (ΔH, ΔS) and binding stoichiometry. Prior to the measurements, Alphabody and target samples were dialyzed against 20 mM HEPES buffer containing 150 mM NaCl, pH 7.4. The ITC measurements were performed in triplicate at a temperature of 37° C. In each experiment, hFlt3L, which exists as a stable dimer in solution, was loaded into the cell (at concentrations 3.0 μM, 6.5 μM and 7.0 μM of hFlt3L dimer, respectively) and hFlt3L_cl4 was loaded in the syringe (at concentrations of 41.35 μM, 89.62 μM and 89.62 μM, respectively). […] This implies that, since the concentrations of hFlt3L were given for the dimeric complex (hFlt3L)₂, only one hFlt3L_cl4 Alphabody binds to one hFlt3L dimer.

[3] = molecular target: T2, human Flt3L; test: isothermal titration calorimetry, 37 C, triplicate; hFlt3L dimer in the cell, Alphabody in the syringe
Procedure: as §1

Row | Binder | binding result [1] | further results
1 | B1 | binds | 
2 | B2 | binds | 
3 | B3 | binds | 
4 | B4 | binds | 
5 | B5 | binds | 
6 | B6 | binds | 
7 | B7 | binds | 
8 | B8 | binds | 
9 | B9 | binds | 
10 | B10 | binds | 
11 | B11 | binds | 
12 | B12 |  | Ka [2]: 4.95e+06 M⁻¹; ΔG [2]: -9.5 kcal/mol; ΔH [2]: -16.6 kcal/mol; ΔS [2]: -22.9 cal/(mol·K); Kd [3]: 202 nM
